# B1: SOCS5 175–244 fragment (domain or fragment, mouse, UniProt O54928 175-244, looked up)
# chain: RSLRQRLQDTVGLCFPMRTYSKQSKPLFSNKRKIHLSELMLEKCPFPAGSDLAQKWHLIKQHTAPVSPHS
# notes: SOCS5, mouse, residues 175-244 (region conserved in SOCS4); Mass by LC-MS 8103 Da; also called JIR; source: E. coli BL21 (DE3), GST fusion purified on glutathione-Sepharose 4B, cleaved with TEV, RP-HPLC; not shown: GST, N-terminal, cleaved
# Biological target: T1, JAK1 JH1 domain (UniProt P23458 875-1153)
# T1 construct: JAK1, JH1 (kinase) domain; also called JAK1 kinase (JH1) domain; active JAK1 JH1 domain
# T1 sequence (P23458 875-1153): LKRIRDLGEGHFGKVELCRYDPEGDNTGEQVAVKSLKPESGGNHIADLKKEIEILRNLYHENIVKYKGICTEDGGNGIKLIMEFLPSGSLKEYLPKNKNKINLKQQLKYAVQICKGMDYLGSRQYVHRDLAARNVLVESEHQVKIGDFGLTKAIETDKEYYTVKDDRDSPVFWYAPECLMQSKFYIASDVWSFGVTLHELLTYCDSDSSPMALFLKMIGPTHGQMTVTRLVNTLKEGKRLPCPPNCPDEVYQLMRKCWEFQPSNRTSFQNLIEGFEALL
# Assay: SPR; SOCS5 175-244 immobilised by amine coupling on a CM5 chip; JAK JH1 domains (62.5 nM to 2 µM) injected; 10 mM HEPES pH 8.0, 200 mM NaCl, 3.0 mM EDTA, 0.05% Tween20; steady-state fit, apparent KD; BIAcore3000
# Details: both partners purified
binder,measurement,value
B1,Kd,500 nM

# From paper PMC3749136 (PLoS ONE, 2013)
